Patent publication US20220305006A1, “COMPOSITIONS AND METHODS FOR THE TREATMENT OF NEUROLOGICAL DISEASES AND DISORDERS” (The Regents of the University of California, priority 2019, published 2022)

Assays:
Experiment in all cases: cell-based or functional assay
[1] = biological target: BACE1 expressed from a transfected plasmid in 293T cells (NRG1 and PSGL1 assays)
[2] = biological target: Recombinant Human Cathepsin D (human) (UniProt P07339)
[3] = biological target: BACE in CHO-7W cells (Chinese hamster ovary cells stably transfected with wildtype human APP)

Chain of Recombinant Human Cathepsin D (human) (P07339 65-412): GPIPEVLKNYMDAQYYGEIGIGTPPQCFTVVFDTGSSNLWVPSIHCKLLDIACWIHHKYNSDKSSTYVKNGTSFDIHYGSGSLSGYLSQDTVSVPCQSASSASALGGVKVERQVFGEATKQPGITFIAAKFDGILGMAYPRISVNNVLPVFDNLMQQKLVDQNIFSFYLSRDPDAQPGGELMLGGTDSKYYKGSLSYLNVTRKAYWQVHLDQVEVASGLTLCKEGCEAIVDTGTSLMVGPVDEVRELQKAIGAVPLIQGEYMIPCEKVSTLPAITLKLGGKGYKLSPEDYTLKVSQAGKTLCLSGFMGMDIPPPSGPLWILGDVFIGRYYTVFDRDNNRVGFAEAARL

NRG1 cleavage by BACE in co-transfected 293T cells (secreted alkaline phosphatase), EC50 [1] [µM] | PSGL1 cleavage by BACE in co-transfected 293T cells (secreted alkaline phosphatase), EC50 [1] [µM] | Cat D activity (fluorogenic substrate), IC50 [2] [µM] | decrease of BACE cleavage product sAPPβ from CHO-7W cells, EC50 [3] [µM] | Substance
> 10 | > 10 | < 0.01 |  | BACE inhibitor 1 (statine BACE inhibitor 1) (peptide)
> 10 | > 10 |  | < 5 | recombinant sAPPα, human, amino acids 19-613 (from UniProt P05067 19-613)
